The values below come from paper PMC4406679.

The target of this data set is T1, His-OpaR (Vibrio parahaemolyticus BB22OP) (UniProt Q79YV4).
T1 sequence: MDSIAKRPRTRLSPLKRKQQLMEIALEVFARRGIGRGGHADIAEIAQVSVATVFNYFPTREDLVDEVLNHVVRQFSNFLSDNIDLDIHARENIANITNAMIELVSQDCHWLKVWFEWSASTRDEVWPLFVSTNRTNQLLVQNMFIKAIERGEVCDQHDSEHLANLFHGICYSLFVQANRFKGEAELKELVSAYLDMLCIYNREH
Put plainly: EMSA. Conditions: 10 mM Tris-HCl pH 7.5, 50 mM NaCl, 1 mM MgCl2, 0.5 mM EDTA, 0.5 mM DTT, 0.05 mg/ml poly d(I-C), 150 ug/ml BSA; temperature not stated. Background: A gel shift assay detects complexes by their altered migration in electrophoresis.

As to “CTGTAAGTGAAGAATAATACCGAATGAAGTTTAAAGGCGCTCGAATGAGCGCCTTTTTTATTTGTCATGGAAAACGATAAGAACGAATATGCCGAACATTGAGATCATTCGCTTTAACCACTT (double strand) [araC family (VPBB_A0554) promoter]”, the binding entry is given as “no binding”.
